US10428320B2, “Crystal structure of Staphylococcus aureus Autolysin E, method of producing the crystal and its use in screening methods” (J. Stefan Institute, priority 2015, dated 2019)
Numbering of substitutions follows the chain as printed. Names and notes keep the numbering of the source. “Also recorded” adds a separate entry of the source.

What was measured:
[1] = test system: S. aureus purified peptidoglycan; assay: Degradation of Remazol Brilliant Blue labeled S. aureus peptidoglycan (cell wall substrate), colorimetric; format: biochemical, Staphylococcus aureus; conditions: mutants in comparison with the native enzyme
From the text: • AtlE is 259 amino acid long protein encoded by the SAV2307 gene loci in the genome of S. aureus strain Mu50. The truncated sequences of glucosaminidase domains of AtlE, lacking the first 34 residues and glu AtlA from S1012 onwards, include additional four amino acids (SAAA, i.e. Ser-Ala-Ala-Ala) that belong to the recognition site of TEV protease. The nucleotide sequences were amplified from the genomic DNA of S. aureus Mu50 using KOD Hot Start Polymerase and cloned into pMCSG 7 plasmid in the frame with N-terminal His-Tag as described [Eschenfeldt et al., 2009]. The mutants were prepared by the overlap extension method [Ho et al., 1989]. The proteins were expressed in BL21(DE3) E. coli expression strain grown in YZM5052 auto induction medium. To facilitate the expression of proteins in soluble form, the cells were initially grown at 37° C. When optical density (OD) measured at 600 nm reached the value of 1, the cells were transferred to 25° C. After 16 hours the cells were pelleted by centrifugation (15 minutes at 7000× g), re-suspended in the buffer A ([…] Tris, 0.4 M NaCl, pH 7.5) supplemented with 1 mg/ml of lysozyme, and frozen and disrupted by the freezing thawing cycles and sonication. The proteins were purified from the cell lysate on AKTAxpress FPLC system (GE Healthcare) using two-step purification protocol. The first purification step was Ni^2+-affinity chromatography on HiTrap IMAC FF column (GE Healthcare) equilibrated in buffer A with 10 mM imidazole. […] 2. […] The degradation products were analyzed by mass spectroscopy. A single cleavage between the central NAG-NAM residues should indicate the classic N-acetyl-glucosaminidase activity by generating the NAM-NAG and NAM-NAGred disaccharides, whereas NAMred and NAG-NAM-NAGred would indicate the muraminidase activity. […] 3. Isolation of S. aureus Peptidoglycan • S. aureus cells were grown overnight in Brain Hearth Infusion Broth (BHI) (37° C., 250 rpm) pelleted by centrifugation (15 minutes at 6000× g), washed three times with the 30 mM Tris, 0.4 M NaCl buffer and then re-suspended in the same buffer. After heat inactivation, the insoluble pellet was re-suspended in 4% SDS and incubated 30 minutes at 80° C. After 30 minutes of centrifugation at 40,000× g, the pellet was re-suspended and washed six times in water. Proteins that remained associated with the peptidoglycan were digested overnight by incubation with trypsin (1 mg/ml) in 30 mM Tris, 0.4 M NaCl, 10 mM MgCl2, pH 7.5 buffer. After pelleting (30 minutes at 40000× g) peptidoglycan was treated overnight with 5 ml 40% aqueous hydrogen fluoride to remove teichoic acid, pelleted again (30 minutes at 40000× g) and washed extensively with water. Saturated suspension of the pure peptidoglycan solution in water was stored at −20° C. 4. Biochemical Peptidoglycan Degradation and Labeling with Remazol Brilliant Blue • For the colorimetric assays, peptidoglycan was labeled with Remazol Brilliant Blue as described [Odintsov et al., 2004]. In short, 50 ul of water suspension of Remazol Brilliant Blue labeled peptidoglycan was mixed with 10 ul of 1 M buffer solutions at pH of […] of 4 M NaCl, different amounts of enzymes and filled with water to the final volume […]. The final concentration of buffer and NaCl in the reaction mixture was therefore 100 mM.

[2] = Digestion of synthetic tetrasaccharide substrate, products analyzed by mass spectroscopy; format: biochemical; conditions: mass spectroscopy of degradation products
From the text: (§1) • AtlE is 259 amino acid long protein encoded by the SAV2307 gene loci in the genome of S. aureus strain Mu50. The truncated sequences of glucosaminidase domains of AtlE, lacking the first 34 residues and glu AtlA from S1012 onwards, include additional four amino acids (SAAA, i.e. Ser-Ala-Ala-Ala) that belong to the recognition site of TEV protease. The nucleotide sequences were amplified from the genomic DNA of S. aureus Mu50 using KOD Hot Start Polymerase and cloned into pMCSG 7 plasmid in the frame with N-terminal His-Tag as described [Eschenfeldt et al., 2009]. The mutants were prepared by the overlap extension method [Ho et al., 1989]. The proteins were expressed in BL21(DE3) E. coli expression strain grown in YZM5052 auto induction medium. To facilitate the expression of proteins in soluble form, the cells were initially grown at 37° C. When optical density (OD) measured at 600 nm reached the value of 1, the cells were transferred to 25° C. After 16 hours the cells were pelleted by centrifugation (15 minutes at 7000× g), re-suspended in the buffer A ([…] Tris, 0.4 M NaCl, pH 7.5) supplemented with 1 mg/ml of lysozyme, and frozen and disrupted by the freezing thawing cycles and sonication. The proteins were purified from the cell lysate on AKTAxpress FPLC system (GE Healthcare) using two-step purification protocol. […] The degradation products were analyzed by mass spectroscopy. […]

[3] = Digestion of synthetic hexa-NAG substrate, products analyzed by mass spectroscopy; format: biochemical; conditions: mass spectroscopy of degradation products
From the text: as §1

B1: E138A (protein)
chain: MKKNFKLRISTLLLIVILVVFAVLLIVNETKLFKNDVNYSFDEAVSMQQGKGIVQTKEEDGKFVEANNNEIAKAMTISHKDNDMKYMDITEKVPMSESEVNQLLKGKGILENRGKVFLEAQEKYEVNVIYLVSHALVATGNGKSELAKGIKDGKKRYYNFFGIGAFDSSAVRSGKSYAEKEQWTSPDKAIIGGAKFIRNEYFENNQLNLYQMRWNPENPAQHQYASDIRWADKIAKLMDKSYKQFGIKKDDIRQTYYK
**Q.** What does the source list for B1?
**A.** activity against the cell wall substrate (S. aureus peptidoglycan) [1]: abolished activity; activity against the cell wall substrate (S. aureus peptidoglycan) ([1]; listed as E138): zero activity

B2: Y201A (protein)
chain: B1 chain with A138E, Y201A
**Q.** Which results are given for B2?
**A.** activity against the cell wall substrate (S. aureus peptidoglycan) [1]: completely inactive; activity against the cell wall substrate (S. aureus peptidoglycan) ([1]; listed as Y201): zero activity; also recorded: abolished the enzymatic activity

B3: D167A (protein)
chain: B1 chain with A138E, D167A
**Q.** For B3, which “activity against the cell wall substrate (S. aureus peptidoglycan)” value (from here on “activity against the cell wall substrate”) [1] is on record?
**A.** halved activity

B4: D227A (protein)
chain: B1 chain with A138E, D227A
**Q.** For B4, which “activity against the cell wall substrate” value [1] is on record?
**A.** halved activity

B5: E145A (protein)
chain: B1 chain with A138E, E145A
**Q.** With B5 as the molecule, how does the “activity against the cell wall substrate” value [1] read?
**A.** activity of native enzyme; also recorded: activity equivalent to the native enzyme

B6: AtlE: recombinant glucosaminidase domain of Autolysin E of S. aureus Mu50, encoded by SAV2307 (protein)
chain: SAAANDVNYSFDEAVSMQQGKGIVQTKEEDGKFVEANNNEIAKAMTISHKDNDMKYMDITEKVPMSESEVNQLLKGKGILENRGKVFLEAQEKYEVNVIYLVSHALVETGNGKSELAKGIKDGKKRYYNFFGIGAFDSSAVRSGKSYAEKEQWTSPDKAIIGGAKFIRNEYFENNQLNLYQMRWNPENPAQHQYASDIRWADKIAKLMDKSYKQFGIKKDDIRQTYYK
**Q.** Which results are given for B6?
**A.** digestion products / specificity on (NAM-NAG)2red [2]: only NAM-NAGred with Mw of 499.21 Da was found; cleavage of (NAG)6 [3]: not degraded at all; also recorded: cannot
